The numbers were not newly measured in US12539328B2, “Oral vaccine via dental bacteria and emitted peptides to prevent COVID-19 infection” (priority 2021, dated 2026), which cites them from elsewhere.

The data set deals with SARS-CoV-2 infection of Vero E6 cells. Conditions: first approach, built around an ACE2 helix; read-out: IC50 of SARS-CoV-2 neutralization.

B1: AHB2 (protein)
chain: ELEEQVMHVLDQVSELAHELLHKLTGEELERAAYFNWWATEMMLELIKSDDEREIREIEEEARRILEHLEELARK
Consider B1, for which the IC50 was 15.5 nM.

B2: AHB1 (protein)
chain: DEDLEELERLYRKAEEVAKEAKDASRRGDDERAKEQMERAMRLDQVFELAQELQEKQTDGNRQKATHLDKAVKEAADELYQRVR
As for B2, the IC50 is 35 nM.

As a reminder, the IC50 is the point on the concentration scale where inhibition reaches its midpoint.
